The results in this text go back to publication PMC13389190.

Test [1] deals with ZF-NB23.
For test [2], the target named is ZF-NB23. The source holds these as a separate data set.
Test [3] has as its target ZF-NB23. This is another data set of the same source.

Sequence of ZF-NB23 (heavy, as listed by the source): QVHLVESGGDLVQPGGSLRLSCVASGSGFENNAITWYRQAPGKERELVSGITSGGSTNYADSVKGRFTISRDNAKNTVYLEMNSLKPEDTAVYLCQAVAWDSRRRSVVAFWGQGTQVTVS

In turn, “recombinant trimeric SARS-CoV-2 spike protein (from UniProt P0DTC2 14-1273) (natural protein)” gave an MDC (minimal detectable concentration of Spike in the ZF-NB23 / NB15-T7 RNAP sensor) in the test with ZF-NB23 [1] of 13 pM. Further, the MDC (minimal detectable concentration of Spike in the fully de novo sensor) in the test with ZF-NB23_D1 and in the test with NB15_C1-T7 RNAP was 33.3 nM each time. In addition, the MDC (minimal detectable concentration of Spike in the ZF-NB23 / NB15-T7 RNAP sensor, 10% nasal swab sample) in the test with ZF-NB23 [2] is 40 pM. Also, in the test with ZF-NB23 [3], the MDC (minimal detectable concentration of Spike, trehalase / glucose read-out) turned out to be 330 pM.
